# Laboratory results taken from patent US10335489B2, “Injectable solution at pH 7 comprising at least one basal insulin the pi of which is between 5.8 and 8.5 and a substituted co-polyamino acid” (ADOCIA, priority 2012, dated 2019).
# Test: Precipitation of insulin glargine on addition to PBS/BSA mixture simulating the subcutaneous medium, centrifugation, RP-HPLC assay of supernatant
# Assay type: physicochemical
# Conditions: co-polyamino acid 1/insulin glargine/prandial insulin 75/25 composition added to 2 ml PBS/BSA
# Procedure: The PBS/BSA mixture simulates the composition of the subcutaneous medium.
# Centrifugation at 4000 rpm is carried out in order to separate the precipitate from the supernatant.
# (§1) The PBS/BSA mixture simulates the composition of the subcutaneous medium. A precipitate appears.
# as §1
# This composition is added to 2 ml of PBS containing 20 mg/ml of BSA (bovine serum albumin). The PBS/BSA mixture simulates the composition of the subcutaneous medium. A precipitate appears. Centrifugation at 4000 rpm is carried out in order to separate the precipitate from the supernatant. […]
# The PBS/BSA mixture simulates the composition of the subcutaneous medium. A precipitate appears. Centrifugation at 4000 rpm is carried out in order to separate the precipitate from the supernatant.
# as §1
substance,measurement,value
Human insulin (ActRapid ®): commercial solution of human insulin at 100 IU/ml,Precipitation of insulin glargine,yes
